{
  "source": "the domain aggregation screens of Martell et al. (2025)",
  "data": [
    {"assay": "soluble fraction after stress (log2 fold change); higher = more stays soluble; pooled small domains, quantitative proteomics", "details": "stress: 50 degC", "method_in_brief": "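Quantitative proteomics served as the high-throughput read-out for pooled custom libraries of small protein domains. Each was stressed at 50°C. Aggregation propensity is expressed as the base-two log fold change in soluble protein after stress. A higher value means a larger share of the protein remains in solution.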", "values": [
      {"sequence": "HMEPEAKIDFILKAAQKRLGLYGYEKTTMQEIAADINMSKAALYYYFPDKESLFKAVVENEQEEYFH", "soluble fraction (log2)": -1.63},
      {"sequence": "HMSKEEAIQAMKEGKKVTHRFFSSDEWMTIENGFLLLEDGVRISLEDFFNFRSDSLWDNGYELYNPH", "soluble fraction (log2)": -0.162},
      {"sequence": "HMDATGDPIADRILQALQLGELTRTQVNNVFQRHLAAARISQALNFLRSLKRADMRMEETAGRSGEVWFAI", "soluble fraction (log2)": -0.341},
      {"sequence": "HMKTKMTPELTTVIEAQIQKEWSPEQISGWLKKTHPVSVSHQRIYQHIQADRQQGGTLHQHLRQAK", "soluble fraction (log2)": 0.163},
      {"sequence": "HMIKRITDEQHPVDVDRLLVVTFTNAAASEMRERIGDAIEAALEKDPYNQHLQRQLTLVHNAQITTIDS", "soluble fraction (log2)": -0.0115},
      {"sequence": "HMLDEKFLSELMLALLRNHRRGLRAEVLLHKVRSNMELDGYKSLLVGVGRMEMWELAREIIDFVKAEG", "soluble fraction (log2)": -4.4},
      {"sequence": "HMRWAAIMGREVAAHSTPESLVEGKLHIRTDTTAWATQLRLMSADIVRRLNEVLGEGTVLEVDVRG", "soluble fraction (log2)": -1.96},
      {"sequence": "HMNIDEIIGKKAVVIESIDNLQGTGKVRYQGMEWTARAEEENDRIEKDAEVEIIAVKGVKLIVKMK", "soluble fraction (log2)": -0.13},
      {"sequence": "HMRKDWTPGAFVEAFVNDTPATRSTILAKAVSAGLSRWAADNLLRTADNDGLMVRQGSGKRNEPFTYRRGP", "soluble fraction (log2)": -0.196},
      {"sequence": "HMPKHDWDAFAGAIARRVHDHGMPVSQGELVRDMMDWFAGRKDFPPPDERTVRRKVSAIWRELNG", "soluble fraction (log2)": -1.02},
      {"sequence": "HMEQVPEAVGRRVRQARSDRGWTLDQLAERSEVSRRMIVNVEAGTSNASIATLLRLATALNVGLAELVA", "soluble fraction (log2)": -1.41},
      {"sequence": "HMEYQTVEKSEAEQIIQELEKAERLALKVYSKNDIITGISVSDGKSYYFSAELVPMLKNIIENPEIKIL", "soluble fraction (log2)": -0.623},
      {"sequence": "HMEEYLENLTQSKLLHMLDQLSPAYKTVFTLFVLDELSHEEISKMLNISIGTSKSNLFRARKVMRVLMESE", "soluble fraction (log2)": -0.397},
      {"sequence": "HMVLNVMIEEEVHREIIAAISKLPKERRRVVELSMAGFSQEEIAEKMAISVNTVKTIKLRAYRVLRERLKG", "soluble fraction (log2)": -3.18},
      {"sequence": "HMRMTRQRKVILEELGKVYTHPTADEIYTMVKEKLPNISLGTVYRNLDLLAENNQVLKLETAGNIRRYD", "soluble fraction (log2)": -0.0847},
      {"sequence": "HMDKLSYALGLSMGHNFLGSGIKSLNVEDFAKGVEAVYKQEKPEISFDEAKKIINEFFSNLQDEIAE", "soluble fraction (log2)": -0.628},
      {"sequence": "HMIPEILNGYTKWGDDEPFEDHAGPFYMKMMPSTGRHLSAFIPEQRHMNGGGFLHGGMLMSFADYALFVI", "soluble fraction (log2)": 0.00747},
      {"sequence": "HMEGYLYLSESQNELILKNLKTPLKYNLYNASGKLIKKGNIKNTLDISELPKGVYIFTSSDNSFSKKFLKT", "soluble fraction (log2)": -0.0444},
      {"sequence": "HMEDEISLGAINVPRGSVIVTAGGARLVEGSDYTVDYYSGTVKILNKSLLDAGTPINVSLET", "soluble fraction (log2)": 0.0198},
      {"sequence": "HMGQLIGKEEAKQIALSRAGVAEGDISRYESELDTDDGKTKYEISFHVGRVEYDIEINAVTGAVEKFEMDN", "soluble fraction (log2)": 0.131},
      {"sequence": "HMKEAITVIGGKNNITFDASAQAEIGIYSMDGVQIQKKTISDNERIDLPAGMYVVTVKTGQANVSKVVVV", "soluble fraction (log2)": 0.00681},
      {"sequence": "HMLLLASTPAEQTIIQLLAEGWRDGDQLQQRSHLSAADFSTALTMLEVNGSIKPLGANHWALTH", "soluble fraction (log2)": -0.919},
      {"sequence": "HMQETALANFETNEGVQKVKQYVQENVPSLRGSNIVGVWTSYTPEGLTNYRTRFLTQDGQFVEVNLAYQ", "soluble fraction (log2)": 0.036},
      {"sequence": "HMSGYFSDKKLNELFEQYLIMREKKGKPVVGYQLKILIDRLNQVAANTKEKIEVVSNAIAGDWNTFYPIKR", "soluble fraction (log2)": -0.621},
      {"sequence": "HMEAKTSNPDYHARLGLTEGEGNDSALGVSVKAAEGGFGLLFGNKVGSDQLVRFANEDQVWLVNRALS", "soluble fraction (log2)": 0.0188},
      {"sequence": "HMDAINYEDFQLLIKQRGSFKVAFEDIMFSTKVAIEKKEDFYDFVTKLIDNGFNNMAYNYLEGFQD", "soluble fraction (log2)": -2.09},
      {"sequence": "HMAVELPLETTLDIVRKYARNQEVDRRAERVEAVSAEALQTLAPRGTKLASEIVEQAKTQVLEELA", "soluble fraction (log2)": 0.177},
      {"sequence": "HMNSLGYSDFVVDVQNERVASVVIEGLIINGERRDGTKFRTVLPTIGDQRLMDDLINHNVKVLARE", "soluble fraction (log2)": 0.236},
      {"sequence": "HMKRVVFFNGISWYHRTKELLDDMTTKYGKKGGFATPEEAEKSYWEYEERYKDRQRELQVAYLKN", "soluble fraction (log2)": -0.648},
      {"sequence": "HMKGQNRSEITAGARVKVVQKQDQRTGALTEGIVRDILTRSPHHPHGIKVRLESGIVGRVKDVL", "soluble fraction (log2)": 0.0363}
    ]}
  ]
}
